Assay results as given in publication PMC11022072.

Biological target: bovine lactoferrin (Lf) (bovine)
Assay: […]; 20 mM HEPES pH 7.4, 150 mM NaCl

Work on “C-terminal α-helical domain (CaHD) of Moraxella bovis LbpB (domain or fragment)” yielded a stoichiometry N of 1.
